According to article doi:10.1101/2024.12.18.629156:

Key:
[1] = tested on: His6-SUMO-ecHOP1-wHTH WT (Ectocarpus (E. siliculosus; model brown alga)); test: EMSA
[2] = target: ecHOP1-HORMA (2xStrepII-ecHOP1-HORMA, residues 1-274) (Ectocarpus); test: ITC

Row | Substance | Kd [1] [µM] | Kd [2] [µM]
1 | 167 bp Widom DNA | 0.25 | 
2 | MBP-ecHOP1 CM1-1 (closure motif 1 of ecHOP1 isoform 1, residues 567-600) (domain or fragment) |  | 7.2
3 | MBP-ecHOP1 CM2-1 (closure motif 2 of ecHOP1 isoform 1, residues 665-694) (domain or fragment) |  | 10.6
4 | MBP-ecRED1 CM1 (putative closure motif 1 of ecRED1) (domain or fragment) |  | 60.3
